The nanobody polyreactivity screen of Harvey et al. (2022)

Assay: yeast display, Sf9 membrane polyspecificity reagent, FACS + sequencing; frameworks hold sequencing errors
Procedure, shortened: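 Genes from sorted yeast were amplified by colony PCR, read by MiSeq 2 × 250 sequencing and filtered on CDR length. These cells carried a synthetic nanobody library in Saccharomyces cerevisiae BJ5465 and were sorted by FACS into low and high (top ~1%) gates on anti-HA and streptavidin fluorescence. Polyreactivity is labelled according to the gate of origin.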

Sequence	polyreactivity (PSR sort gate)
QFQLVESGGGLVQAGGSLRLSCAASGRIYGYYALGWYRQAPGQERELVATITFGGGSTYYTDSVKGRFTISRDNAKNTVSLQMNSLKPEDTALYYCAADSGYLGIYGDEYSWGHGTQVTVSS	low polyreactivity
QFQLVESGGGLVQAGGSLRLSCAASGRSFNRNAMGWYRQAPGKERELVAAISRSGTRTYYADSVKGRFTISRDNAKNTVYLQMNSLKPEDTAVYYCNALRVDGGDYWGQGTQVTVSS	high polyreactivity
QFQLVESGGGLVQAGGSLRLSCAASGRTFASNAMGWYRQAPGKERELVADITWDGGRTYYADSVKGRFTISRDNAKNTVYLQMNSLKPEDTAVYYCAARDTFPRRYGYWGQGTQVTVSS	high polyreactivity
QFQLVESGGGLVQAGGSLRLSCAASGRTFGFNAMGWYIQAPGKERELVAAISGSGGRTYYADSVKGRFTISRDKPKNTVYLQMNSLKPEDTAVYYCAAGARRGGSGYLGQGTQVTVSS	high polyreactivity
QFQLVESGGGLVQAGGSLRLSCAASGRTFKVYAMGWYRQAPGKERELVAAITGGGSTNYADSEKGRFTISRDNAKNTVYLQMNRLKAEDTAVYYGNARYYYRLVKWSRFSSYDYWGQGTQVTVSS	low polyreactivity
QFQLVESGGGLVQAGGSLRLSCAASGRTFSRTAMGWYRQAPGKERELVAAITKGGGSTYYADSVKGRFTISRDNAKNTVYLQMNSLKPEDTAVYYCAAYKPSTRRYDYWGQGTQVTVSS	high polyreactivity
QFQLVESGGGLVQAGGSLRLSCAASGRTFWYYDMGWYRQAPGKERELFATITSGGSTNYADSVKGRFTISRDNAKNTVYLQMNSLKPEDTAVYYCAAARWRWQLARDDYWGQGTQVTLSS	high polyreactivity
QFQLVESGGGLVQAGGSLRLSCAASGSIFYGYAMGWYRQAPGKERELVAAITSSNGSTYYADSVKGRFTISRDNEKNTVYLQMNSLKPEDTAVYYCAADVHGSYYIKPNVWYDYWGQGTQVTVSS	low polyreactivity
QFQLVESGGGLVQAGGSLRLSCAASGSIFYGYTMGWYRQEPGKERELLAAIRKSGGSTNYADSVKGRFTISRDNAKNTVYLQMNSLKPEDTAVYYCSASYYRGRGYYWGQGTQVTVSS	high polyreactivity
QFQLVESGGGLVQAGGSLRLSCAASGSTFAFYAMGRYRQAPGKERELVPAINLGGGSTYYAASVKGRFTISRDNAKNTVYLQMNSLKPEDTAVYYCAADFWTISWPVFDTYEYWGQGTQVTVSS	low polyreactivity
QFQLVESGGGLVQAGGSLRLSCAASGSTFIRYAMGWYRQAPGKERELVAAISRSGGNTYYADSVKGRFTISRDKAKNTVYLQMNSLKPEDTAVYYCNKDRQQALNYWGQGTQVNVSS	high polyreactivity
QFQLVESGGGLVQAGGSLRLSCAASGSTFITNAMGCYRQAPGKERELVASITRGAGSTYYADSVKGRITISRDNAKNTVYLQMNSLKPEDTAVYYCRLAPRYRKGGYWGQGTQVTVSS	high polyreactivity
QFQLVESGGGLVQAGGSLRLSCAASGSTFIYYTMGWYRQAPGKERELVAAIPSSGGSTYYADSVKGRFTISRDNAKNTVYFQMNSLKPEDTAVYYCAADGTYIKFAKLYRRYDYWGQGTQVTVSS	low polyreactivity
QFQLVESGGGLVQAGGSLRLSCAASGSTFLLYAMGWYRQAPGKEREFVASISGDGSSNYADSVKGRFTISRDNAKITVYLQMNSLKPEDTAVYYCAAVLLDPDSTLESGGNFDYWGQGTQVTVSS	low polyreactivity
QFQLVESGGGLVQAGGSLRLSCAASGSTFVFYAMGWYRQAPGKQRELVATISTGGSTYADSVKGRFTISRDNAKNTVYLQMNSLKPEDTAVYYCAADSLFGHYDYSGQGTQVTVSS	low polyreactivity
QFQLVESGGGLVQAGGSLRLSCAASVLTFSAYAMGWYRQAPGKEREFVAAITDSDGSTYYADYVKGRFTISRDNEKNTVYLQMNSLKPEDTAVYYCAASGSWYYGYWSGGYDYWGQGTQVTVSS	low polyreactivity
QFQLVESGGGLVQAGGSLRLSCAATGSIIGANAMGWYRQAPGKERELVAAISTRGGRTYYADSVKGRFTISRDNAKNTVYLQMNSLKPEDTAVYYCATSGGRPYKYEYWGQGTQVTVSS	high polyreactivity
QFQLVESGGGLVQAGGSLRLSCADSGRILRFYAMGWYRQAPGKERELVAAISWTGGRTYYADSVKGRFTISRDNAKNTVYLQMNSLKPEDTAVYYCAAEVFTTGSFRRYDYWGQGTQVTVSS	high polyreactivity
QFQLVESGGGLVQAGGSLRLSCADSVRTLYRNVMVWYRHAPVKERELVAAISLSGGSTYYEDSVKGRFTISRDNANYTVYLQMNSMKPEYTAVYYCAVKRPYCPGEYGYWGQGTQVTVSS	high polyreactivity
QFQLVESGGGLVQAGGSLRLSCASSGIIFKRYAMGWYRQAPGNERELVAAISTSGSTYYADSVKGRFTISRDNAKNTVYLQMNSLKPEDTAVYYCAAGRWWRYFTWHGYWGQGTQVTVSS	high polyreactivity
QFQLVESGGGLVQAGGSLRLSFAASGFIFGLYAMGWYRQAPGIETELVAAISGSGGSTYYADSVKGRFTISRDNAKNTVYLQMNSLKPEDTAVYYCNRAQGVHTYVYRYGYWGQGTQVTVSS	low polyreactivity
QFQLVESGGGLVQAGGSLRLSSAASGSIFRSYAMGWYRQAHGKERELVAAISSRSGSTYYADSVKGRFTISRDNAKNTVYLQMNSLKPEETAVYYCAAQHRHSYGYWGQGTQVTVSS	high polyreactivity
QFQLVESGGGLVQAGGSLSLSCAASGSTLQSYAMGWYRQAPGKERELVAGIRISGGNTRYADSVKGRFTISRDNAKNTVYLQMNSLIPEDTAVYYCAALTGFYNLRPYGYWGQGTQVTVSS	high polyreactivity
QFQLVESGGGLVQARGSLRLSCAPSGRTFGIYTMGWYRPAPGKERELVAAISAGGGRTSYADSVKGRFTISRDHAKNTVYLQMMSLKPEDTAVYYCAARVYQYRNEDTTRRAGRSYWGQGTQVTVSS	high polyreactivity
QFQLVESGGGLVQEGGSLRLSCAPSGSTFRFYAMGWYRQSPGKERELVAVISSAGSTNYADSVKGRFTISRDNAKNTVYLQMNSLKPEDTAVYYCAAYRRYSIYNYWGEGTQVTVSS	high polyreactivity
QFQLVESGRGIVQAGGSLRLSCAASGFTFGPSAMVWYRQAPGKERELVAVISRSGGRTYYADSVKGRFTISRDNAKNTVYLQMNSLKPEDTAVYYCAAAGYGNDGYDYWGQGTQVTVSS	high polyreactivity
QFQLVESGRGLVQAGGSIRLSCAASGSIFRWYAMGWSRQAPGKERELVAAISYGGGSTYYADSVKGRFTISRDNAKNTVYLQMNRLKPEDTAVYYCNRGYPSTLYDYWGQGTQVTVSS	high polyreactivity
QFQLVESGRGLVQAGGSLRLSCAASGLIFRYYAMGWYRQAPGKERELVAAIRTGGSTYYADSVKGRFTISRDNAKNTVYLQMNSLKPEDTAVYYCAALLLSWYRTSYDFDYWGQGTQVTVSS	high polyreactivity
QFQLVESGVGLVQAGASLRLSCAASVLTFVGNAMGWYRQAPGKERELVDAISKRGGRTYYADSVKGRFRISRDNAKNTVYLQMNSLKPEDTAVYYCAATIKAYPTPLLGDYWGQGTQVTVSS	high polyreactivity
QFQLVESGVGLVQAGGSLRLSCAASGRTSGSYAMGWYRQAPGKERELVAVITTSDGSTYYADSVKGRFTISRDNAKNTVYLQMNSLKPEDTEVYYCNVDYPNLWYDSYYYWGQGTEVTVSS	low polyreactivity
